Data set [1] is described as follows: Ex vivo prodrug stability in normal mouse liver homogenate (LC/MS/MS). It is filed as in vitro ADME. An excerpt: (§1) Liver was representative of all normal tissues analysed. (FIG. 5) • d.
(§2) Half lives are the mean taken from four independent experiments. Liver represent murine liver homogenate and tumour represents HT1080

Data set [2] in a line: Ex vivo prodrug metabolism in HT1080 tumour homogenate (LC/MS/MS). Type of data set: in vitro ADME, human.
Description: as §1, §2

Data set [3] is described as follows: Tissue levels of prodrug and VDA2 after intraperitoneal dosing of HT1080 tumour-bearing mice. It is filed as in vivo.
Description: as §1

Data set [4] is described as follows: Off-target toxicity by mouse body weight in antitumour study. It is filed as in vivo, Balb/C mice. On the procedure: ICT-2552 and ICT-2588 (‘prodrug’) were administered as a single dose via the intraperitoneal route to Balb/C mice bearing subcutaneous HT1080 xenografts. Each of the nine dosing groups comprised 8 mice. The anti-tumour effects of the compounds were assessed by determination of tumour volume and the existence of off-target toxicity was ascertained via monitoring mouse body weight.
The dosing groups evaluated ICT-2588 (prodrug) relative to the molar equivalent dose of ICT-2552 (warhead), and were: • 10% DMSO/oil (solvent control) • ICT-2588 at 37.5 mg/kg; 50.0 mg/kg; 62.5 mg/kg; 75.0 mg/kg • ICT-2552 at 7.5 mg/kg; 10.0 mg/kg; 12.5 mg/kg; 15 mg/kg Results
The weight of all mice was within the tolerated loss of 15% of bodyweight, therefore the compounds are not classified as toxic to the whole body system.

Data set [5] in a line: Ex vivo prodrug stability in normal mouse plasma (LC/MS/MS). The note with it: normal mouse plasma ex vivo.
Description: Prodrug cleavage and metabolism were detected using LC/MS/MS. • a.

The structures appear in SMILES notation. Non-standard residues stand in square brackets, D forms with d. Residues, ends and D or L forms follow the SMILES beside them. *: point of attachment. NH(Colchicin-10-yl) = COc1cc2c(c(OC)c1OC)-c1ccc(N*)c(=O)cc1[C@@H](NC(C)=O)CC2; FITC = O=C1OC2(c3ccc(O)cc3Oc3cc(O)ccc32)c2ccc(NC(=S)*)cc21; hPhe = N[C@@H](CCc1ccccc1)C(=O)O; Cit = NC(=O)NCCC[C@H](N)C(=O)O; βAla = NCCC(=O)O

Take `COc1cc2c(c(OC)c1OC)-c1ccc(NC(=O)[C@H](Cc3ccc(O)cc3)NC(=O)[C@H](CC(C)C)NC(=O)[C@H](Cc3ccc(O)cc3)NC(=O)[C@H](CCc3ccccc3)NC(=O)CNC(=O)[C@H](CCCNC(N)=O)NC(=O)[C@H](CO)NC(=O)[C@H](CCCNC(=N)N)NC(=O)CCNC(=S)Nc3ccc4c(c3)C(=O)OC43c4ccc(O)cc4Oc4cc(O)ccc43)c(=O)cc1[C@@H](NC(C)=O)CC2` [ICT-2588] ({FITC-βAla}-RS[Cit]G[hPhe]YLY-{NH(Colchicin-10-yl)}): the half-life in data set [1] (mouse, tissue homogenate, murine liver homogenate, mean of four independent experiments, read-out: Liver t½) is 2.48 h; in data set [2] (human, tissue homogenate, HT1080 tumour homogenate, mean of four independent experiments, read-out: Tumour t½) it was 0.55 h. Further, the “stability in liver homogenate” value in data set [1] (normal mouse liver homogenate ex vivo) is “remained stable”. The “metabolism in tumour homogenate, high versus low MT-MMP” value in data set [2] (HT1080 (high MT-MMP) relative to MCF7 (low MT-MMP) homogenate) is listed as “metabolised rapidly”. For the same molecule, the “VDA2 levels in tumour following prodrug administration” value in data set [3] (HT1080 tumour) was “High concentrations”. Further, the “prodrug accumulation in tissues” value in data set [3] (HT1080 tumour-bearing mice) was “accumulated and was detected in all tissues analysed”. Also, the “site of highest prodrug levels” value in data set [3] (HT1080 tumour-bearing mice) is listed as “Highest prodrug-2 levels were observed in the tumour”. In addition, in data set [3] (plasma), the “VDA2 in plasma following prodrug administration” value was “undetectable”. Also, the “VDA2 level in tumour relative to normal tissues” value in data set [3] (tumour vs normal tissues) was 10 times higher. Moreover, in data set [3] (tumour, 48 hours), the “levels of prodrug-2 and VDA2 in tumour 48 hours post administration” value is reported as “still detectable”. Also, the “Maximum % weight loss” value was 3 (3) % in data set [4] (ICT-2588 37.5 mg/kg), 5% in data set [4] (ICT-2588 50.0 mg/kg), 4% in data set [4] (ICT-2588 62.5 mg/kg) and 5% in data set [4] (ICT-2588 75.0 mg/kg). The “day of maximum weight loss” value in data set [4] (ICT-2588 37.5 mg/kg) was 3 (3) day; in data set [4] (ICT-2588 50.0 mg/kg), 3 days; in data set [4] (ICT-2588 62.5 mg/kg), 3 days; in data set [4] (ICT-2588 75.0 mg/kg), 3 days. In data set [5], the stability in plasma entry is listed as “remained intact”.

For the origin of these results see patent US10912839B2, “Methods of treating cancer using compounds containing a vascular disrupting agent” (priority 2008, dated 2021).
